{
  "source": "paper PMC7913460",
  "about": "“Targeting hydroxycinnamoyl CoA: shikimate hydroxycinnamoyl transferase for lignin modification in Brachypodium distachyon” (Biotechnology for Biofuels, 2021)",
  "proteins": {"B1": {"name": "AtHCT1 (Arabidopsis thaliana) (protein)", "chain": "MKINIRDSTMVRPATETPITNLWNSNVDLVIPRFHTPSVYFYRPTGASNFFDPQVMKEALSKALVPFYPMAGRLKRDDDGRIEIDCNGAGVLFVVADTPSVIDDFGDFAPTLNLRQLIPEVDHSAGIHSFPLLVLQVTFFKCGGASLGVGMQHHAADGFSGLHFINTWSDMARGLDLTIPPFIDRTLLRARDPPQPAFHHVEYQPAPSMKIPLDPSKSGPENTTVSIFKLTRDQLVALKAKSKEDGNTVSYSSYEMLAGHVWRSVGKARGLPNDQETKLYIATDGRSRLRPQLPPGYFGNVIFTATPLAVAGDLLSKPTWYAAGQIHDFLVRMDDNYLRSALDYLEMQPDLSALVRGAHTYKCPNLGITSWVRLPIYDADFGWGRPIFMGPGGIPYEGLSFVLPSPTNDGSLSVAIALQSEHMKLFEKFLFEI"}},
  "key": {"[1]": {"substrate": "CC(C)(COP(=O)(O)OP(=O)(O)OC[C@H]1O[C@@H](n2cnc3c(N)ncnc32)[C@H](O)[C@@H]1OP(=O)(O)O)[C@@H](O)C(=O)NCCC(=O)NCCSC(=O)/C=C/c1ccc(O)cc1", "assay": "HPLC product assay, forward HCT reaction", "assay_type": "biochemical, Arabidopsis thaliana", "conditions": "500 µM shikimic acid, 100 mM sodium phosphate pH 7.5, 500 µM DTT, kcat apparent", "excerpt": "HPLC product assay, forward HCT reaction on AtHCT1"}, "[2]": {"substrate": "O=C(/C=C/c1ccc(O)c(O)c1)O[C@@H]1CC(C(=O)O)=C[C@@H](O)[C@H]1O", "assay": "HPLC product assay, reverse HCT reaction", "assay_type": "biochemical, Arabidopsis thaliana", "conditions": "500 µM CoA, 100 mM sodium phosphate pH 7.5, 500 µM DTT, kcat apparent, substrate tested 20 to 400 µM", "excerpt": "HPLC product assay, reverse HCT reaction on AtHCT1"}},
  "data": [
    {"protein": "B1", "values": [
      {"measurement": "Km", "setting": "[1]", "result": 18.5, "unit": "µM"},
      {"measurement": "kcat", "setting": "[1]", "result": 17.5, "unit": "s⁻¹"},
      {"measurement": "kcat/Km", "setting": "[1]", "result": 950000, "unit": "M⁻¹ s⁻¹"},
      {"measurement": "Km", "setting": "[2]", "result": 225.0, "unit": "µM"},
      {"measurement": "kcat", "setting": "[2]", "result": 17, "unit": "s⁻¹"},
      {"measurement": "kcat/Km", "setting": "[2]", "result": 76000, "unit": "M⁻¹ s⁻¹"}
    ]}
  ]
}
